From article PMC13086964 (Nature Communications, 2026)

T1: recombinant full length His6-MBP-FAN1-His6 (human, UniProt Q9Y2M0 1-1017)
T1 construct: human FAN1, full length; Tag ends are read from the printed name His6-MBP-FAN1-His6; also called MBP-His-tagged FAN1; recombinant human FAN1; source: E. coli BL21, purified (HisTrap, MBPTrap, desalting); not shown: His6, N-terminal, kept; MBP, N-terminal, kept; His6, C-terminal, kept
T1 sequence (looked up): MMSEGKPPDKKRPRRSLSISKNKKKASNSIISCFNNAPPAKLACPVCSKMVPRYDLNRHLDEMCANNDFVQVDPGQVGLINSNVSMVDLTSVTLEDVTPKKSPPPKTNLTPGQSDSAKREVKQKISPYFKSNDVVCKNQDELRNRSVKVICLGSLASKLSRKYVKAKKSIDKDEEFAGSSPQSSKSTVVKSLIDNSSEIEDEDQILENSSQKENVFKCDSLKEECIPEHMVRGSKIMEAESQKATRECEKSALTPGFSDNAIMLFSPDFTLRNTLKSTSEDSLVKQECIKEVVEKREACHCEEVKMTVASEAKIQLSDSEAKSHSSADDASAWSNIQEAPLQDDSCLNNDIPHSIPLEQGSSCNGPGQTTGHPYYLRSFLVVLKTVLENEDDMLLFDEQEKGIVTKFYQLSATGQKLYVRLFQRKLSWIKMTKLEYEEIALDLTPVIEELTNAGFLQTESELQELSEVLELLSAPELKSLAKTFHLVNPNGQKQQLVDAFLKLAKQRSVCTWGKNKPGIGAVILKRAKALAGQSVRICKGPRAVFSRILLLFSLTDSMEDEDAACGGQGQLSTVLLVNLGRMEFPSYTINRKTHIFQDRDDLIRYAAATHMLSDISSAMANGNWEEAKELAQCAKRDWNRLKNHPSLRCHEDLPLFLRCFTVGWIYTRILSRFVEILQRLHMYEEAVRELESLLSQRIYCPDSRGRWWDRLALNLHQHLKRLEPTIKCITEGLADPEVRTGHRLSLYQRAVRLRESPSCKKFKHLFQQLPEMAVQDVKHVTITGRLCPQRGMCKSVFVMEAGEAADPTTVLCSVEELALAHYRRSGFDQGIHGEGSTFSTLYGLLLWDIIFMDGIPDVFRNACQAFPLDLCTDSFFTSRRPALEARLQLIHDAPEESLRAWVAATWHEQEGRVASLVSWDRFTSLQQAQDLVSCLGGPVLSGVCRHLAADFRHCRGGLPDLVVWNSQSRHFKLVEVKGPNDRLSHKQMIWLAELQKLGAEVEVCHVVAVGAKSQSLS

B1: USP7 UBL domain (residues 520-1067), biotinylated (domain or fragment, human, UniProt Q93009 520-1067, looked up)
chain: RESKLSEVLQAVTDHDIPQQLVERLQEEKRIEAQKRKERQEAHLYMQVQIVAEDQFCGHQGNDMYDEEKVKYTVFKVLKNSSLAEFVQSLSQTMGFPQDQIRLWPMQARSNGTKRPAMLDNEADGNKTMIELSDNENPWTIFLETVDPELAASGATLPKFDKDHDVMLFLKMYDPKTRSLNYCGHIYTPISCKIRDLLPVMCDRAGFIQDTSLILYEEVKPNLTERIQDYDVSLDKALDELMDGDIIVFQKDDPENDNSELPTAKEYFRDLYHRVDVIFCDKTIPNDPGFVVTLSNRMNYFQVAKTVAQRLNTDPMLLQFFKSQGYRDGPGNPLRHNYEGTLRDLLQFFKPRQPKKLYYQQLKMKITDFENRRSFKCIWLNSQFREEEITLYPDKHGCVRDLLEECKKAVELGEKASGKLRLLEIVSYKIIGVHQEDELLECLSPATSRTFRIEEIPLDQVDIDKENEMLVTVAHFHKEVFGTFGIPFLLRIHQGEHFREVMKRIQSLLDIQEKEFEKFKFAIVMMGRHQYINEDEYEVNLKDFEPQP
modifications: biotin (on the AviTag)
notes: human USP7 UBL domain, residues 520-1067; p28BIOH-LIC vector; also called USP7 UBL domains; source: E. coli BL21(DE3)-pBirAcm, purified (TALON, SEC); not shown: AviTag, N-terminal, kept
B2: GST-FAN1-NTD (aa 1-372) (domain or fragment, human, UniProt Q9Y2M0 1-372, looked up)
chain: MMSEGKPPDKKRPRRSLSISKNKKKASNSIISCFNNAPPAKLACPVCSKMVPRYDLNRHLDEMCANNDFVQVDPGQVGLINSNVSMVDLTSVTLEDVTPKKSPPPKTNLTPGQSDSAKREVKQKISPYFKSNDVVCKNQDELRNRSVKVICLGSLASKLSRKYVKAKKSIDKDEEFAGSSPQSSKSTVVKSLIDNSSEIEDEDQILENSSQKENVFKCDSLKEECIPEHMVRGSKIMEAESQKATRECEKSALTPGFSDNAIMLFSPDFTLRNTLKSTSEDSLVKQECIKEVVEKREACHCEEVKMTVASEAKIQLSDSEAKSHSSADDASAWSNIQEAPLQDDSCLNNDIPHSIPLEQGSSCNGPGQTTGH
notes: also called GST-tagged FAN1; source: E. coli BL21-CodonPlus RIL, purified from soluble extracts on Glutathione Sepharose beads

How the values were obtained:
[1] = target: T1, recombinant full length …; experiment: pull-down; in vitro streptavidin pull-down with recombinant biotin-tagged USP7 TRAF-like or UBL domains and MBP-His-tagged FAN1 (Figure S3A); conditions: both partners purified
[2] = target: T2, purified recombinant His-USP7, full-length (human, UniProt Q93009 1-1102); experiment: pull-down; GST-FAN1-NTD on Glutathione Sepharose beads, 0.5 µg recombinant His-USP7, 1 h at 4 °C in PBS-1% Triton; washes with 300 mM NaCl; immunoblotting; conditions: both partners purified
T2 construct: human USP7, recombinant, full-length; also called human recombinant USP7; source: bought: R&D Systems (# E-519)
T2 sequence (Q93009 whole entry): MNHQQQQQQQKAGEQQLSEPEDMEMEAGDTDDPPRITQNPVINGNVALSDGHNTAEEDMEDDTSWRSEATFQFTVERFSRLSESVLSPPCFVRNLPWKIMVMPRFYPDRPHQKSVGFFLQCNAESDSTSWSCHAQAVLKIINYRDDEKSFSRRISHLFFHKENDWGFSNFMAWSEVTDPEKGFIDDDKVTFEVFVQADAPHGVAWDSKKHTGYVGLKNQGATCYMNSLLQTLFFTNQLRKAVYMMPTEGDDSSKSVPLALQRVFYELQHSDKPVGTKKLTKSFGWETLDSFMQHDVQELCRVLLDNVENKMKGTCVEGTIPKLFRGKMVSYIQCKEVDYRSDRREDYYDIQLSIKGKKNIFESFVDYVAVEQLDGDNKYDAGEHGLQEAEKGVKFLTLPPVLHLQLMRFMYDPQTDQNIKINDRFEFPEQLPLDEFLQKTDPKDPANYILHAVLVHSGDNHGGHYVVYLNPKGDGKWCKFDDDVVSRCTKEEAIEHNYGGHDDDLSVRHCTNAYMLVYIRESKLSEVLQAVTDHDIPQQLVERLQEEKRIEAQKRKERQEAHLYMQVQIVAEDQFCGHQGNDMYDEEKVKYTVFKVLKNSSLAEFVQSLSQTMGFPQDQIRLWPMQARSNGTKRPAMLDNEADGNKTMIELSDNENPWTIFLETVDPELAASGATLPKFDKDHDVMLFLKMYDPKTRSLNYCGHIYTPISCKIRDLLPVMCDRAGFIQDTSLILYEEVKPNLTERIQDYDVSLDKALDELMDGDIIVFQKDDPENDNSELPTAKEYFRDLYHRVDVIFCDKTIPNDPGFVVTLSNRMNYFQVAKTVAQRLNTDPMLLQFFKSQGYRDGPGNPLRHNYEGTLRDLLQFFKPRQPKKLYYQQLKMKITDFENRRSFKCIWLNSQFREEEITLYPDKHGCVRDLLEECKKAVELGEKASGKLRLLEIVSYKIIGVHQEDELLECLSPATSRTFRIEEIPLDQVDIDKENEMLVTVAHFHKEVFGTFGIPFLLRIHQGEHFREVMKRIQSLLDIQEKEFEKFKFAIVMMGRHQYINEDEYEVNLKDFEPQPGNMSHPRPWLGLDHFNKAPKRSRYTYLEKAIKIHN

Binder | binding result [1] | binding result [2]
B1 | binds | 
B2 |  | binds
